Measured values reported in patent US8647613B2, “Drug carrier” (JCR Pharmaceuticals Co., Ltd., priority 2005, dated 2014).

B1: Catalase (from bovie liver): model protein, 232 kDa (protein, UniProt P00432 2-527, looked up)
Catalase: ADNRDPASDQMKHWKEQRAAQKPDVLTTGGGNPVGDKLNSLTVGPRGPLLVQDVVFTDEMAHFDRERIPERVVHAKGAGAFGYFEVTHDITRYSKAKVFEHIGKRTPIAVRFSTVAGESGSADTVRDPRGFAVKFYTEDGNWDLVGNNTPIFFIRDALLFPSFIHSQKRNPQTHLKDPDMVWDFWSLRPESLHQVSFLFSDRGIPDGHRHMNGYGSHTFKLVNANGEAVYCKFHYKTDQGIKNLSVEDAARLAHEDPDYGLRDLFNAIATGNYPSWTLYIQVMTFSEAEIFPFNPFDLTKVWPHGDYPLIPVGKLVLNRNPVNYFAEVEQLAFDPSNMPPGIEPSPDKMLQGRLFAYPDTHRHRLGPNYLQIPVNCPYRARVANYQRDGPMCMMDNQGGAPNYYPNSFSAPEHQPSALEHRTHFSGDVQRFNSANDDNVTQVRTFYLKVLNEEQRKRLCENIAGHLKDAQLFIQKKAVKNFSDVHPEYGSRIQALLDKYNEEKPKNAVHTYVQHGSHLSAREKANL

What was measured:
[1] = cited from earlier work; for Isoelectric point: Table 2; for Isoelectric point (-): Table 5
[2] = Hydrolysis of compound 28 in the liposome at low pH (thin layer chromatography); assay type: physicochemical; conditions: PBS pH 4.5, 37° C., 24 hours, liposome 3/4/3/0.03
Protocol: The prepared liposome (DOPC/chol/(28)/PEG-DPE=3/4/3/0.03, molar ratio) was dispersed in PBS of pH 4.5 at 37° C., and the dispersion was lyophilized 24 hours later. The dried mixed lipid powder was dissolved in chloroform and detected by thin layer chromatography (silica gel plate, chloroform/methanol (8/1) (volume/volume) detection: iodine).

| hydrolysis in the liposome at low pH [2] | Molecule | Isoelectric point [1] | Isoelectric point (-) [1] |
| --- | --- | --- | --- |
|  | Thyrogrobulin: model protein, 670 kDa | 4.5 | 4.5 |
|  | α-Lactalbumin: model protein, molecular weight 14 kDa | 4.1-4.8 | 4.1-4.8 |
| hydrolyzed | CCCCCCCCCCCCCCCCOC(=O)CCC(NC(=O)C(N)CCC(=O)O)C(=O)OCCCCCCCCCCCCCCCC (centres unmarked) [compound 28] |  |  |
|  | Ferritin | 4.0-5.0 | 4.0-5.0 |
|  | B1 |  | 5.5 |
